Laboratory results: patent US6979727B2, “Recombinant conglutinin and producing method thereof” (Fuso Pharmaceutical Industries, Ltd., priority 1995, dated 2005)

Experiments:
[1] = target: T1, Recombinant Conglutinin (Bos taurus, UniProt P23805); experiment: Sugar inhibition of binding to mannan-coated plates (ELISA)
T1 sequence (P23805 211-371): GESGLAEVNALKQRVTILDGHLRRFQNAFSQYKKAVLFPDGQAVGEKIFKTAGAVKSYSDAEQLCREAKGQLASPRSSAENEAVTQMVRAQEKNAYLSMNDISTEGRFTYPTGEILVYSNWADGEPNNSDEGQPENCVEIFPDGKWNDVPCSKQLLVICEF

[2] = target: iC3b on sheep erythrocyte cells (horse (from fresh horse serum)); experiment: cell-based or functional assay
[3] = tested on: Influenza A viruses; experiment: Neutralization activity of collectins (method of Example 6); assay type: cell-based, Influenza A virus
[4] = tested on: Influenza A viruses; assay type: cell-based, Influenza A virus
[5] = tested on: Influenza A viruses; experiment: HI activity of collectins (method of Example 5); assay type: cell-based, Influenza A virus; details: Table 4
[6] = tested on: Hemagglutinin (HA); details: Table 4, Western blotting
[7] = tested on: sheep erythrocyte cells with iC3b; experiment: Conglutination activities, microtiter plate assay system; assay type: cell-based; details: 1% sheep erythrocyte cells with iC3b, 37° C., veronal buffer
Experimental: Conglutination activities of the recombinant conglutinin and the native conglutinin were evaluated by Microtiter plate assay system. Sheep erythrocyte cells with iC3b were prepared according to the method of Wakamiya et al., (Biochem. Biophys. Res. Comm., Vol. 187, pp. 1270-1278, 1992). Namely, 1% sheep erythrocyte cells with iC3b were prepared by priming with a mixture of ten-fold diluted fresh horse serum and equivalent amount of anti-Forssmann antibody, and incubated at 37° C. for ten minutes.
50 μl of 1% sheep erythrocyte cells with iC3b and 50 μl of the recombinant conglutinin or 50 μl of the native conglutinin was added to the raw veronal buffer or the veronal buffer containing 30 mM N-acetylglucosamine. Then, they were incubated at 37° C. and the conglutination activities thereon were detected. The lowest concentration of the proteins to cause agglutination is regarded as titer of conglutination, then the results are shown in FIG. 8. In FIG. 8, Lane A is the native conglutinin, Lane B is the recombinant conglutinin and Lane C is the recombinant conglutinin containing 30 mM N-acetylglucosamine. Titer of conglutination on the native conglutinin was 0.16 μg/ml, while that of the recombinant conglutinin was 1.3-2.5 μg/ml.

[8] = tested on: A/Ibaraki/1/90(H3N2); experiment: Neutralization activities in MDCK cells, PAP staining; assay type: cell-based, Influenza A virus
[9] = tested on: A/Adachi/1/57(H2N2); assay type: cell-based, Influenza A virus
[10] = tested on: A/Suita/1/89(H1N1); experiment: Hemagglutination Inhibition (HI) with chick's erythrocytes; assay type: cell-based, Influenza A virus
[11] = tested on: A/Ibaraki/1/90(H3N2); experiment: as above; assay type: cell-based, Influenza A virus

Molecule: C[C@@H](O)[C@H](O)[C@H](O)[C@@H](O)C=O [D-Fucose]
- IC50 [1]: 55.3 mM

Molecule: O=C[C@@H](O)[C@@H](O)[C@H](O)[C@H](O)CO [D-Mannose]
- IC50 [1]: 12.3 mM

Molecule: O=C[C@H](O)[C@@H](O)[C@@H](O)[C@H](O)CO [Galactose]
- IC50 [1]: 46.8 mM

Molecule: C[C@H](O)[C@@H](O)[C@@H](O)[C@H](O)C=O [L-Fucose]
- IC50 [1]: 37.8 mM

Molecule: OC[C@H]1O[C@@H](O[C@H]2[C@H](O)[C@@H](O)C(O)O[C@@H]2CO)[C@H](O)[C@@H](O)[C@H]1O (stereo partly drawn) [Lactose]
- IC50 [1]: > 100 mM

Molecule: OC[C@H]1O[C@H](O[C@H]2[C@H](O)[C@@H](O)[C@H](O)O[C@@H]2CO)[C@H](O)[C@@H](O)[C@@H]1O [Maltose]
- IC50 [1]: 25.8 mM

Molecule: CC(=O)N[C@H]1C(O)O[C@H](CO)[C@@H](O)[C@@H]1O (stereo partly drawn) [N-Acetyl-D-Glucosamine]
- IC50 [1]: 0.65 mM

Molecule: CC(=O)N[C@@H]1C(O)O[C@H](CO)[C@@H](O)[C@@H]1O (stereo partly drawn) [N-Acetyl-D-Mannosamine]
- IC50 [1]: 26.6 mM

Molecule: Native bovine conglutinin (from UniProt P23805 21-371)
- Titer of conglutination (lowest concentration of the proteins to cause agglutination) [2]: 0.16 µg/mL

Molecule: native hMBP: native human mannan-binding protein (hMBP)
- Neutralization Activity (Minimum Protein Concentration) [3]: > 5 µg/mL
- Neutralization Activity ([3]; Table 4): −
- Neutralization Activity ([3]; Table 5, class symbol): −
- Present Method [4]: +
- Viral Growth Inhibition Activity (Minimum Protein Concentration) [4]: 0.05 µg/mL
- area of the infected focus / viral growth ([4]; 0, 0.25 and 0.5 μg/ml, three days, MDCK cells (FIG. 14)): reduced the area of the infected focus in a dose-dependent manner
- Viral Growth Inhibition Activity ([4]; Table 6, class symbol): +
- HI Activity [5]: +
- HA Binding [6]: −

B1: Native Conglutinin: animal lectin of the calcium-dependent mammalian C-type lectin family existing in bovine serum (protein, UniProt P23805 21-371, looked up)
Conglutinin: AEMTTFSQKILANACTLVMCSPLESGLPGHDGQDGRECPHGEKGDPGSPGPAGRAGRPGWVGPIGPKGDNGFVGEPGPKGDTGPRGPPGMPGPAGREGPSGKQGSMGPPGTPGPKGETGPKGGVGAPGIQGFPGPSGLKGEKGAPGETGAPGRAGVTGPSGAIGPQGPSGARGPPGLKGDRGDPGETGAKGESGLAEVNALKQRVTILDGHLRRFQNAFSQYKKAVLFPDGQAVGEKIFKTAGAVKSYSDAEQLCREAKGQLASPRSSAENEAVTQMVRAQEKNAYLSMNDISTEGRFTYPTGEILVYSNWADGEPNNSDEGQPENCVEIFPDGKWNDVPCSKQLLVICEF
- Titer of conglutination (lowest concentration of the proteins to cause agglutination) [7]: 0.16 µg/mL
- Neutralization Titer (concentration to inhibit half (50%) of the infection) [8]: 0.08 µg/mL
- Neutralization Activity ([3]; Table 4): +
- Expression Concentration on Hemagglutination Inhibition (HI) [9]: >5 µg/mL
- Present Method [4]: −
- HI Activity [5]: +
- Expression Concentration on Hemagglutination Inhibition (HI) [10]: 0.08 µg/mL
- HA Binding [6]: +
- Expression Concentration on Hemagglutination Inhibition (HI) [11]: 0.08 µg/mL

B2: Bovine Conglutinin: bovine conglutinin of Table 5; native or recombinant not stated (protein, UniProt P23805 21-371, looked up)
Conglutinin: AEMTTFSQKILANACTLVMCSPLESGLPGHDGQDGRECPHGEKGDPGSPGPAGRAGRPGWVGPIGPKGDNGFVGEPGPKGDTGPRGPPGMPGPAGREGPSGKQGSMGPPGTPGPKGETGPKGGVGAPGIQGFPGPSGLKGEKGAPGETGAPGRAGVTGPSGAIGPQGPSGARGPPGLKGDRGDPGETGAKGESGLAEVNALKQRVTILDGHLRRFQNAFSQYKKAVLFPDGQAVGEKIFKTAGAVKSYSDAEQLCREAKGQLASPRSSAENEAVTQMVRAQEKNAYLSMNDISTEGRFTYPTGEILVYSNWADGEPNNSDEGQPENCVEIFPDGKWNDVPCSKQLLVICEF
- Neutralization Activity (Minimum Protein Concentration) [3]: 0.09 µg/mL
- Neutralization Activity ([3]; Table 5, class symbol): +

B3: Human Surfactant Protein (hSP-D) Native: native human surfactant protein D (protein, UniProt P35247 21-375, looked up)
Pulmonary …: AEMKTYSHRTMPSACTLVMCSSVESGLPGRDGRDGREGPRGEKGDPGLPGAAGQAGMPGQAGPVGPKGDNGSVGEPGPKGDTGPSGPPGPPGVPGPAGREGPLGKQGNIGPQGKPGPKGEAGPKGEVGAPGMQGSAGARGLAGPKGERGVPGERGVPGNTGAAGSAGAMGPQGSPGARGPPGLKGDKGIPGDKGAKGESGLPDVASLRQQVEALQGQVQHLQAAFSQYKKVELFPNGQSVGEKIFKTAGFVKPFTEAQLLCTQAGGQLASPRSAAENAALQQLVVAKNEAAFLSMTDSKTEGKFTYPTGESLVYSNWAPGEPNDDGGSEDCVEIFTNGKWNDRACGEKRLVVCEF
- Neutralization Activity ([3]; Table 4): +
- Present Method [4]: −
- HI Activity [5]: +
- HA Binding [6]: +

B4: Human Surfactant Protein (hSP-D) Recombinant: recombinant human surfactant protein D (protein, UniProt P35247 21-375, looked up)
Pulmonary …: AEMKTYSHRTMPSACTLVMCSSVESGLPGRDGRDGREGPRGEKGDPGLPGAAGQAGMPGQAGPVGPKGDNGSVGEPGPKGDTGPSGPPGPPGVPGPAGREGPLGKQGNIGPQGKPGPKGEAGPKGEVGAPGMQGSAGARGLAGPKGERGVPGERGVPGNTGAAGSAGAMGPQGSPGARGPPGLKGDKGIPGDKGAKGESGLPDVASLRQQVEALQGQVQHLQAAFSQYKKVELFPNGQSVGEKIFKTAGFVKPFTEAQLLCTQAGGQLASPRSAAENAALQQLVVAKNEAAFLSMTDSKTEGKFTYPTGESLVYSNWAPGEPNDDGGSEDCVEIFTNGKWNDRACGEKRLVVCEF
- Neutralization Activity ([3]; Table 4): −
- Present Method [4]: −
- HI Activity [5]: −
